T1: Myo5 SH3 (MYO5_YEAST), Q04439
T1 chain: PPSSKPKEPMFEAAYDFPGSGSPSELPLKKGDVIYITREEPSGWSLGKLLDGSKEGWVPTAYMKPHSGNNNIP

T2: Boi1 SH3 (BOI1_YEAST), P38041
T2 chain: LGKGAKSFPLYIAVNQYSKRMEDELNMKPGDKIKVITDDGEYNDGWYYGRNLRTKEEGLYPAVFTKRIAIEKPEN

T3: Rvs167 SH3 (RV167_YEAST), P39743
T3 chain: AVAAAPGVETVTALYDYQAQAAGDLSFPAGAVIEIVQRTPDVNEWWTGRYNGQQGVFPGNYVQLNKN

T4: Boi2 SH3 (BOI2_YEAST), P39969
T4 chain: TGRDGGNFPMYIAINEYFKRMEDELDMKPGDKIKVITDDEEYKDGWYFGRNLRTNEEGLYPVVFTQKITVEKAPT

T5: Yfr024 SH3 (LSB3_YEAST), P43603
T5 chain: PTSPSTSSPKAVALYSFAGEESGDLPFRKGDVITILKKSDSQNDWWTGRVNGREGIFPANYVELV

T6: Yhr016c SH3 (YSC84_YEAST), P32793
T6 chain: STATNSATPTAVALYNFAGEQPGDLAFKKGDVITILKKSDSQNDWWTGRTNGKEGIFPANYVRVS


Tests used:
Experiment in all cases: SPOT array
[1] = target: T1, Myo5 SH3 (MYO5_YEAST), Q04439
[2] = target: T2, Boi1 SH3 (BOI1_YEAST), P38041
[3] = target: T3, Rvs167 SH3 (RV167_YEAST), P39743
[4] = target: T4, Boi2 SH3 (BOI2_YEAST), P39969
[5] = target: T5, Yfr024 SH3 (LSB3_YEAST), P43603
[6] = target: T6, Yhr016c SH3 (YSC84_YEAST), P32793
[7] = target: Sho1 SH3 (SHO1_YEAST), P40073
Sequence of Sho1 SH3 (SHO1_YEAST), P40073 (P40073 295-366): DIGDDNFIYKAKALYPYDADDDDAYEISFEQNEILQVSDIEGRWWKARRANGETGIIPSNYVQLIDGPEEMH

Row | Binder | normalised SPOT signal, Boehringer light units (BLU); mean over the file's lines of this peptide [1] | normalised SPOT signal, Boehringer light units (BLU); mean over the file's lines of this peptide [2] | normalised SPOT signal, Boehringer light units (BLU); mean over the file's lines of this peptide [3] | normalised SPOT signal, Boehringer light units (BLU); mean over the file's lines of this peptide [4] | normalised SPOT signal, Boehringer light units (BLU); mean over the file's lines of this peptide [5] | normalised SPOT signal, Boehringer light units (BLU); mean over the file's lines of this peptide [6] | normalised SPOT signal, Boehringer light units (BLU); mean over the file's lines of this peptide [7]
1 | EFDLKNIPMMPAGE [YDL229W 462-475] | 106 | 18.6 | 74.1 | 9.1 | 112 | 32.3 | 37.1
2 | EFIVKTIPVPPRDF [YER025W 296-309] | 115 | 15 | 30.4 | 13.8 | 202 | 44.4 | 57.2
3 | EFLIKEDPDLPPQG [YCL024W 744-757] | 175 | 78 | 134 | 69.1 | 8.1 | 51.8 | 65.4
4 | EFLRKHSPKAPATG [YMR021C 127-140] | 413 | 620 | 126 | 37.3 | 227 | 13.2 | 91
5 | EFPGKKSPRLPHRN [YPR097W 343-356] | 368 | 1090 | 3000 | 42.9 | 8340 | 7160 | 71.6
6 | EFQSKSSPVPPASE [YDR008C 96-109] | 78.8 | 1430 | 83.5 | 26.5 | 7.3 | 49.9 | 34.9
7 | EFTTREGPHQPIGN [YDR123C 192-205] | 79.8 | 268 | 29.4 | 0 | 9.9 | 34.5 | 43.5
8 | EGRSRLFPHSPLGR [YGL122C 259-272] | 141 | 14900 | 393 | 165 | 2220 | 90.9 | 41.4

— paper PMC314469, “Protein Interaction Networks by Proteome Peptide Scanning” (PLoS Biology, 2004)
